According to the DeepSol protein solubility set:

test: soluble on expression in E. coli; label from the status in PepcDB or PDB records

| Sequence | soluble on expression in E. coli |
| --- | --- |
| MSLMHTRYFTPSAQWIVQQLWPETLRFAKIEYLYPFKLRLSGVQIASEPTIELQQMDLWLNPYGLLEQQLEIDSVLIDGANLAHGLPNFTLPESVHLNQLALHNIDWADQGIIARGVSLQIKQPVWDSPQQQLPYGKIQLAADQITIDGEAFNQVLVDANYQAQDSTVYGFSFNWRNSPISGQAEQYPQGWSLINVTLSRLNLNLDEWRHHSLWQTIAPSIYHINSLDLLNSQLTLNGVAWENLNLSVEDYDLRHSLWQQQQAYLSLNADSAQWLATQWVEPSAELTLTPQGIELDGHSQVWQGDVQVKGHITETSLNLAQLTITGVKWIAEQPQDLLPFSQPLPAWQNLQIEHLDINNLQMIQTVNRPFWQASGLNADGKNLQWVKESQWGFWQGQLSVTANSASYAGVLSTQGVLNMRSEQGVWQLTRAFLPLERGYVEAHAKWDLTSLSAPWQLSLDADSLPIGPLQSWFKLPFGLEALADISLTAQGIAGDRTMLAHSLDGQLQLNLRQGLLSLRSDNTLIIQPFELDDLAVSADRGRITITPTPLRGPNLNAQLGGSTDLLEPEQGQWQLTIQQAWADQCLGLSWDFQQAELVSQDCRSAPEGHHHHHH | soluble |
| MSFVAYEELIKEGDTAILSLGHGAMVAVRVQRGAQTQTRHGVLRHSVDLIGRPFGSKVTCGRGGWVYVLHPTPELWTLNLPHRTQILYSTDIALITMMLELRPGSVVCESGTGSGSVSHAIIRTIAPTGHLHTVEFHQQRAEKAREEFQEHRVGRWVTVRTQDVCRSGFGVSHVADAVFLDIPSPWEAVGHAWDALKVEGGRFCSFSPCIEQVQRTCQALAARGFSELSTLEVLPQVYNVRTVSLPPPDLGTGTDGPAGSDTSPFRSGTPMKEAVGHTGYLTFATKTPG | soluble |
| FNKELDPVQKLFVDKIREYRTKRQTSGGPVDAGPEYQQDLDRELFKLKQMYGKADMNTFPNFTFEDPKFEVVEKPQS | soluble |
| MKIIKRNGSEAVFDISKIMMAVSRANEVVQANQKLSKAQINAIAAQVEEVCSTRPHAMNVEEIQDLVENQIMEQQAFEVARKYITYRYIRTLKRSSN | not soluble |
| MMIAAAIFTTCVDGNKFFYHREIKVLRHLKRFNKPALKSIKSEDGDVIDCVPITNQPAFDHHLLKNHTIQMRPSFYPVSDSTYTKREAKAVTQVWHKAGECPKNTVPIRRTKKEDLLRPKSIRSFGRKSHQSIPRTTTFDPTLGHQYALMGVRNGKFYGTEVAINLWKPYVQIPKEFSLAQTWVVSGNGSSLNTIEAGWQVYPELYDDNNPRFFVYWTRDGYRKTGCYNLLCSGFVQTSNRYTVGGSITTMSRYRGTQYDLSVLIWKDQKTGNWWLRVNEKDVIGYWPGSLFNSLGREATRVEWGGEIINSKTGGRHTTTDMGSGHFADEGFKKASYFRNLKIVDGTNTLREPQGLYFFADKHNCYNVKTGNGGTSWGAHFFYGGPGRNVKCP | soluble |
| GGTSNEVAQFLSKENQVIVRMRGLPFTATAEEVVAFFGQHCPITGGKEGILFVTYPDGRPTGDAFVLFACEEYAQNALRKHKDLLGKRYIELFRSTAAEVQQVLNRFSSA | soluble |
| SMSKRTFSTVLPQIDTTGQLFVQTRKGQEVLIKVKHFMKQHILPAEKEVTEFYVQNENSVDKWGKPLVIDKLKEMAKVEGLWNLFLPAVSGLSHVDYALIAEETGKCFFAPDVFNCQAPDTGNMEVLHLYGSEEQKKQWLEPLLQGNITSCFCMTEPDVASSDATNIECSIQRDEDSYVINGKKWWSSGAGNPKCKIAIVLGRTQNTSLSRHKQHSMILVPMNTPGVKIIRPLSVFGYTDNFHGGHFEIHFNQVRVPATNLILGEGRGFEISQGRLGPGRIHHCMRTVGLAERALQIMCERATQRIAFKKKLYAHEVVAHWIAESRIAIEKIRLLTLKAAHSMDTLGSAGAKKEIAMIKVAAPRAVSKIVDWAIQVCGGAGVSQDYPLANMYAITRVLRLADGPDEVHLSAIATMELRDQAKRLTAKI | soluble |
| MSILVKNNIHWVGQRDWEVRDFHGTEYKTLRGSSYNSYLIREEKNVLIDTVDHKFSREFVQNLRSEIDLADIDYIIINHAEEDHAGALTELMAQIPDTPIYCTANAIDSINGHHHHPEWNFKVVKTGDTLDIGNGKQLIFVETPMLHWPDSMMTYMTGDAVLFSNDAFGQHYCDERLFNDEVDQTELFEQCQRYYANILTPFSRLVTPKITEILGFNLPVDMIATSHGVVWRDNPTQIVELYLKWATDYQEDRITIFYDTMSNNTRMMADAIAQGINEVDPNVAVKIFNVARSDKNEILTNVFRSKGVLVGTSTMNNVMMPKIAGLVEEMTGLRFRNKRASAFGSHGWSGGAVDRLSTRLQDAGFEMSLSLKAKWRPDLDALELCRQHGRDIARQWALAPLPETTQQIAPVEETITCTAADLGPKMQCSVCQWIYDPALGEPLQDVAPGTPWNDVPDNFLCPECSLGKDVFDVLATEAK | not soluble |
| MSLMFHVVDDSEMLREMLVDMIEIYDCNVMTFASASEYLEYVRSDAFKAPSAVLTDVHMPQMSGYEMMEQVLAIDPSIRFAILSGEPDIPARYQDKVCLFLGKPYTGDQIQNMIYIFKQCELNSASEGHHHHHH | soluble |
| GPLGSPRYELGEELRDKIKQEPSFSNMVSAKKFYNKAIKDFTAPKEGAEVVSVKTHIMRPIDFMLMGLREEFNLYSEDGAHLSAPGTIRLLREKNLLPEEQIARIESVYNQAMSKRFELHAEHKKEHDEMPYSDAKAMLDEVAKIRELGVQRVTRIENLENAKKLWDNANSMLEKGNISGYLKAANELHKFMKEKNLKEDDLRPELSDKTISPKGYAILQSLWGAASDYSRAAATLTESTVEPGLVSAVNKMSAFFMDCKLSPNERATPDPDFKVGKSKILVGIMQFIKDVADPTSKIWMHNTKALMNHKIAAIQKLERSNNVNDETLESVLSSKGENLSEYLSYKYATKDEGREHRYTASTE | soluble |
| MVNIMDEIIVVTTPTIPGYKIIEVKGIARGGIVMATHLGRDILALLRNIKGGEVKEYTQMMAEAREEALRRMIEHAKKLGANAVVNFRFATSNVGGGMAEVYAYGTAVVVEREKMASMTGGQQMGRIRIRLEHHHHHH | soluble |
| MKNTGTSVKFGESSTQALIRAAYRQVFGRDLYEGQRLSVAEIQLENGDISVREFIKRLAKSELFLKLYWAPHYVCKAIEYMHRRLLGRPTYGRQEMNQYFDIASKQGFYAVVEAMIDSKEYSDAFGEDTVPYERYLTPGGLEHHHHHH | not soluble |
| VSTLSKEQVKEIIKGNNFQSVADVSAYLRDIFKDIIQELLEAELEAKLGYAKDDVENKNTDNSRNGYSPKTIKSEFREVEIQVPRDRKGEFKPQIIPKYQRNVSGIEEKVIALYARGMSTRDISEQIEELYGFSLSPEMVSKITDRIAPEIKEWQQRPLEPIYTFVFMDEIH | soluble |
| MNFQEENENIKNDIEINLLHSAEADSVEAMMDLAVYGLAAMVAKHNKTRGEQLVLQAIAGHMRKLLAALPETESLVQTGKVYRRLEDLIFKTYLPEQ | not soluble |
| MSLKWFNTLSHNRWLEQETDRIFNFGKNAVVPTGFGWLGNKGQIKEEMGTHLWITARMLHVYSVAASMGRPGAYDLVDHGIKAMNGALRDKKYGGWYACVNDQGVVDASKQGYQHFFALLGAASAVTTGHPEARKLLDYTIEVIEKYFWSEEEQMCLESWDEAFSQTEDYRGGNANMHAVEAFLIVYDVTHDKKWLDRALRIASVIIHDVARNGDYRVNEHFDSQWNPIRDYNKDNPAHRFRAYGGTPGHWIEWGRLMLHLHAALEARFETPPAWLLEDAKGLFHATIRDAWAPDGADGFVYSVDWDGKPIVRERVRWPIVEAMGTAYALYTLTDDSQYEEWYQKWWDYCIKYLMDYENGSWWQELDADNKVTTKVWDGKQDIYHLLHCLVIPRLPLAPGLAPAVAAGLLDINAKEGGSHHHHHH | soluble |
| LLLFFPLGLQQPLLLLLSPPFQHEIQRRKEEIKEEKKRKEMAKQERLEIASLSNQDHTSKKDPGGHRTAAILHGGSPDFVGNGKHRANSSGRSRRERQYSVCNSEDSPGSCEILYFNMGSPDQLMVHKGKCIGSDEQLGKLVYNALETATGGFVLLYEWVLQWQKKMGPFLTSQEKEKIDKCKKQIQGTETEFNSLVKLSHPNVVRYLAMNLKEQDDSIVVDILVEHISGVSLAAHLSHSGPIPVHQLRRYTAQLLSGLDYLHSNSVVHKVLSASNVLVDAEGTVKITDYSISKRLADICKEDVFEQTRVRFSDNALPYKTGKKGDVWRLGLLLLSLSQGQECGEYPVTIPSDLPADFQDFLKKCVCLDDKERWSPQQLLKHSFINPQPKMPLVEQSPEDSGGQDYVETVIPSNRLPSAAFFSETQRQFSRYFIEFEELQLLGKGAFGAVIKVQNKLDGCCYAVKRIPINPASRQFRRIKGEVTLLSRLHHENIVRYYNAWIERHERPAGPGTPPPDSGPLAKDDRAARGQPASDTDGLDSVEAAAPPPILSSSVEWSTSGERSASARFPATGPGSSDDEDDDEDEHGGVFSQSFLPASDSESDIIFDNEDENSKSQNQDEDCNEKNGCHESEPSVTTEAVHYLYIQMEYCEKSTLRDTIDQGLYRDTVRLWRLFREILDGLAYIHEKGMIHRDLKPVNIFLDSDDHVKIGDFGLATDHLAFSADSKQDDQTGDLIKSDPSGHLTGMVGTALYVSPEVQGSTKSAYNQKVDLFSLGIIFFEMSYHPMVTASERIFVLNQLRDPTSPKFPEDFDDGEHAKQKSVISWLLNHDPAKRPTATELLKSELLPPPQMEESELHEVLHHTLTNVDGKAYRTMMAQIFSQRISPAIDYTYDSDILKGNFSIRTAKMQQHVCETIIRIFKRHGAVQLCTPLLLPRNRQIYEHNEAALFMDHSGMLVMLPFDLRIPFARYVARNNILNLKRYCIERVFRPRKLDRFHPKELLECAFDIVTSTTNSFLPTAEIIYTIYEIIQEFPALQERNYSIYLNHTMLLKAILLHCGIPEDKLSQVYIILYDAVTEKLTRREVEAKFCNLSLSSNSLCRLYKFIEQKGDLQDLMPTINSLIKQKTGIAQLVKYGLKDLEEVVGLLKKLGIKLQVLINLGLVYKVQQHNGIIFQFVAFIKRRQRAVPEILAAGGRYDLLIPQFRGPQALGPVPTAIGVSIAIDKISAAVLNMEESVTISSCDLLVVSVGQMSMSRAINLTQKLWTAGITAEIMYDWSQSQEELQEYCRHHEITYVALVSDKEGSHVKVKSFEKERQTEKRVLETELVDHVLQKLRTKVTDERNGREASDNLAVQNLKGSFSNASGLFEIHGATVVPIVSVLAPEKLSASTRRRYETQVQTRLQTSLANLHQKSSEIEILAVDLPKETILQFLSLEWDADEQAFNTTVKQLLSRLPKQRYLKLVCDEIYNIKVEKKVSVLFLYSYRDDYYRILF | soluble |
| RDSGTVWGALGHGINLNIPNFQMTDDIDEVRWERGSTLVAEFKRKMKPFLKSGAFEILANGDLKIKNLTRDDSGTYNVTVYSTNGTRILDKALDLRILE | soluble |
| MGSDKIHHHHHHMTTRERIIETAITLFNEKGTKAVTTNHIAAAMEISPGNLYYHFRNKEEIIRAIFDQMDAVGFEDYEQIIAEHPAGSLAAMEETFLMIQRFNWRYRFFKRELTSLILSDPLLREKHLRVHQAMLRLVRHSIKSSIAQGVLRPMEEDELGLFAEEIWLLTLFWLNYLEVGGEDVTESTLRRGNELVRRTVCCRLTEEGARMLGRSGPAAP | not soluble |
| GRYEIRFSGAGGQGLILAGVIMAEAASIYDGKQAVQSQSYGPEARGGASKSEVIISDGPVDYPKATQCDALLALTQEACDKYSADLKEGGVLLVDSDLVTKLPPGNYQTTAFNIINTAKNDVGREIVANIVALGAMVALTGVVSKEAAEKAVLSRVPEAFVELNRKAFQMGFEKAL | not soluble |
| MIIGVLAIQGDVEEHEEAIKKAGYEAKKVKRVEDLEGIDALIIPGGESTAIGKLMKKYGLLEKIKNSNLPILGTCAGMVLLSKGTGINQILLELMDITVKRNAYGRQVDSFEKEIEFKDLGKVYGVFIRAPVVDKILSDDVEVIARDGDKIVGVKQGKYMALSFHPELSEDGYKVYKYFVENCVKK | soluble |
| GNIEAALFGLIALYAQTKVIDSIIYGGDAGSMATIVTGNPDGIAAKVIYELDRTATVLPAKGAYSRKDTSVLLCTVRKSQFVKLKRIVYEEDPDAFVMVTETSEVLGLGFRAFKDSL | not soluble |
